Holding throughout (details): glycan lost; control: wild type
Series [1] can be described thus: Western blot of transfected HEK293A cell lysates. (In general: In western blotting, separated proteins are transferred to a membrane and probed.)
Series [2] is described as follows: immunofluorescence colocalisation with ER marker ERP72, HEK293A.
The nature of series [3]: immunofluorescence with Golgi marker TGN46, HEK293A.
The nature of series [4]: Western blot of full-length PDGF-C in conditioned medium.
A short description of series [5]: Western blot of core domain in conditioned medium.

PDGF-C (full-length, PC-FL): N25A: the expression_or_secretion entry in series [1] and in series [4] was “no change” each time. In addition, the localisation_or_trafficking result in series [2] and in series [3] was “no change” throughout. For the same substance, the “other: proteolytic processing” value in series [5] was “no change”.

Consider “PDGF-C (full-length, PC-FL): N25A + N55A”, for which the expression_or_secretion result in series [1] and in series [4] was “no change” in each case.

On to “PDGF-C (full-length, PC-FL): N25A + N254A”, for which the expression_or_secretion result in series [1] and in series [4] was “no change” each time. Moreover, the “other: proteolytic processing” value in series [5] was “abolishes”.

For the substance PDGF-C (full-length, PC-FL): N55A, the expression_or_secretion result in series [1] and in series [4] was “no change” throughout. Also, the localisation_or_trafficking entry in series [2] and in series [3] was “no change” in each case. For the same substance, the “other: proteolytic processing” value in series [5] is “no change”.

With “PDGF-C (full-length, PC-FL): N55A + N254A”, the expression_or_secretion entry in series [1] and in series [4] was “no change” throughout. In addition, the “other: proteolytic processing” value in series [5] is “abolishes”.

Consider PDGF-C (full-length, PC-FL): N254A, for which the expression_or_secretion entry in series [1] and in series [4] was “no change” throughout. The localisation_or_trafficking result in series [2] and in series [3] was “no change” throughout.

On to “PDGF-C (full-length, PC-FL): triple NA mutant”, for which the expression_or_secretion result in series [1] and in series [4] was “no change” throughout. Moreover, in series [5], the “other: proteolytic processing” value is recorded as “abolishes”.

These data come from article PMC8181125.
